One molecule from PMC6474821 can be followed below.

Experiment in all cases: fluorescence anisotropy
Data set [1] concerns the target T1, CREB bZip (Rattus norvegicus, UniProt P15337-1 270-341, C300S;C310S;C337S).
T1 sequence: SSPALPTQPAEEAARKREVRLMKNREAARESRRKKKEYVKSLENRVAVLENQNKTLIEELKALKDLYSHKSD

Data set [2] deals with htCREBD,4 (unphosphorylated) (UniProt P15337-1 1-341, C90A;V118D;C300S;C310S;C337S;del162-272).
The target in data set [3] is T1, CREB bZip. This is another data set of the same source.

Like-named read-outs stand apart in the source and are kept apart here.

B1: half-site CRE 14-mer (dsDNA)
DNA 1: ATCTGCGTCAGAGT
DNA 2: ACTCTGACGCAGAT
What is called Kd is the equilibrium constant for the complex coming apart. As for B1, the Kd with CREB bZip [1] is about 32 nM; with CREB bZip [3] it was about 38 nM. Also, the binding result in data set [2] is recorded as “binds”.
